Measured values reported in patent publication US20160340421A1 (Regeneron, published 2016).

Assays:
[1] = target: T1, hGDF8 peptide 12 (73-90), unmodified (human); assay: Luminex peptide beads
T1 peptide: CCTPTKMSPINMLYFNGK
Source text: (§1) Fourteen peptides (Table 10) were generated from mature hGDF8 (SEQ ID NO:340). Unmodified peptides, N-terminal biotinylated peptides (N-term), or C-terminal biotinylated peptides (C-term) were used to test and localize antibody binding. Full-length hGDF8, hGDF11 and unmodified peptides were each individually amine-coupled to xMAP® Multi-Analyte COOH Microspheres (or beads). Each of the biotinylated peptides was bound to xMAP® Multi-Analyte LumAvidin Microspheres. Peptide-bound beads suspension were then mixed with an equal volume of blocking buffer (PBS, 1%13SA, 0.05% Tween20, 0.05% Sodium azide) and then distributed into a 96 well filter plate (Millipore, MULTISCREEN® BV). Control and test anti-hGDF8 antibodies, at 2.5 μg/ml were then added to the peptide-bound beads suspension and were allowed to bind to the beads at RT, overnight. The antibody-incubated beads were then washed twice with PBST (PBS+0.05% Tween20) and incubated with either Phycoerythrin (PE) conjugated anti-hFC or PE-conjugated anti-mFC antibodies at RT for 45 min. The beads were washed again and the antibody binding signal to various peptides were detected with either LUMINEX® 100™ or 200™ instruments.

[2] = target: T2, hGDF8 peptide 14 (91-105), unmodified (human); assay: Luminex peptide beads
T2 peptide: EQIIYGKIPAMVVDR
Source text: as §1

[3] = target: T3, Activin A (UniProt P08476 311-426); assay: SPR Biacore T100, 25°C
T3 sequence (looked up): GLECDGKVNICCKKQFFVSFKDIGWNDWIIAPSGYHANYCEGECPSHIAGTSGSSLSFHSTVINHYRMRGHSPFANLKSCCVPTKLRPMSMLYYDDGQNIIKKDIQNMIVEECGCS
Method: (§2) Additional antigen binding experiments were conducted in which GDF8 and GDF11 were applied over a surface of selected anti-GDF8 antibodies and control antibodies at 25° C. and 37° C. Equilibrium dissociation constants (KD values) for antigen binding to selected antibodies were determined by surface kinetics using a real-time biosensor surface plasmon resonance assay (BIACORE™ T100). […] Various concentrations (2.5-0.625 nM, 2-fold dilutions) of hGDF8 homodimer or hGDF11 homodimer (or in some experiments, Activin A) were injected over the captured antibody surfaces, and antigen-antibody binding and dissociation were monitored in real time. Kinetic analysis was performed to calculate KD, dissociation rate constants (kd), association rate constants (ka) and half-life of antigen/antibody complex dissociation. (NB=no binding observed).

[4] = target: T4, Human GDF8 homodimer (mature human Growth and Differentiation Factor-8) (human, UniProt O14793 267-375); assay: cell-based or functional assay
T4 sequence: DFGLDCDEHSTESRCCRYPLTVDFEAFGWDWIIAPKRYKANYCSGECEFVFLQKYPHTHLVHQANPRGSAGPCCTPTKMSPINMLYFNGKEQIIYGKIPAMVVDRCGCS

[5] = target: T4, Human GDF8 homodimer (mature human …); assay: SPR Biacore T100, captured on anti-hFc, 25°C
Method: as §2

[6] = target: T4, Human GDF8 homodimer (mature human …); assay: SPR Biacore T100, captured on anti-hFc, 37°C
Method: as §2

[7] = target: T5, hGDF11 homodimer (human, UniProt O95390 299-407); assay: GDF11-inducible luciferase bioassay, 0.4 nM GDF11 (legend: NB=no binding)
T5 sequence (looked up): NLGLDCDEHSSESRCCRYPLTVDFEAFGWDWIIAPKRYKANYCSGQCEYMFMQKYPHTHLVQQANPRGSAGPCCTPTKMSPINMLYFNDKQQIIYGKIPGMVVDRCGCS

[8] = target: T6, GDF11 (from serum of treated C57BL6 mice) (mouse, UniProt Q9Z1W4 297-405, limits assumed); assay: pull-down from serum of treated mice with anti human Fc beads, mass spectrometry
T6 sequence (looked up): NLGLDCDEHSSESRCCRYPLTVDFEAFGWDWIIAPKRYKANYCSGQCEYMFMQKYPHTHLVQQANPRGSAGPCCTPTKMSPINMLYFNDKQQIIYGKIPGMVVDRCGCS
Method: (§3) To examine the specificity of H4H1657N2 in vivo, C57BL6 mice were injected with drug, and serum from treated mice was subjected to a mass spectrometry based ligand “fishing” experiment. Briefly, drug (H4H1657N2, Control IV or isotype negative control) was injected multiple times (Day 0, D3, D7, D10) over a 14-day period into C57BL6 mice. Animals were sacrificed on D14 and serum was incubated with anti human Fc beads. The beads were washed and bound material was eluted with SDS-PAGE loading buffer. Eluted material was subjected to SDS-PAGE and gel slices corresponding to a molecular weight range of 5-20 kDa were excised. Samples were processed for mass spectrometry using standard reduction, alkylation and trypsinization conditions. Digests were separated on a nano C18 column and automatically spotted onto Bruker Anchor Targets. MALDI-MS (MS/MS) analysis (Bruker Ultraflextreme) was performed in an automated fashion, using LC-WARP (Bruker Daltonics). The mass spectra were searched using MASCOT (Matrix Science) and results were evaluated relative to the isotype control.

[9] = target: T7, Inhibin beta A chain (from serum of treated C57BL6 mice) (mouse, UniProt Q04998 309-424, limits assumed); assay: as above
T7 sequence (looked up): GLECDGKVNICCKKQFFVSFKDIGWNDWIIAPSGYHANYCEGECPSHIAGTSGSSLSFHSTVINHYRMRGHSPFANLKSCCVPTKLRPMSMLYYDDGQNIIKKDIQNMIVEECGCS
Method: as §3

- binding result [1]: no binding (tested: 2.5 µg/ml)
- binding result [2]: no binding (tested: 2.5 µg/ml)
- binding result [3]: no binding (tested: 2.5-0.625 nM)
- IC50, luciferase bioassay, 0.5 nM GDF8 [4]: 0.78 nM
- Kd [5]: 0.0283 nM
- T1/2 [5]: 3.37 h
- Kd [6]: 0.0379 nM
- T1/2 [6]: 1.52 h
- binding result [7]: no binding
- binding result [8]: no binding
- binding result [9]: no binding
B1: H4H1657N2 (antibody, V domains shown)
VH: EVQVLESGGDLVQPGGSLRLSCAASGFTFSAYAMTWVRQAPGKGLEWVSAISGSGGSAYYADSVKGRFTISRDNSKNTVYLQMNSLRAEDTAVYYCAKDGAWKMSGLDVWGQGTTVIVSS
VL: DIQMTQSPASLSASVGDRVTITCRASQDISDYLAWYQQKPGKIPRLLIYTTSTLQSGVPSRFRGSGSGTDFTLTISSLQPEDVATYYCQKYDSAPLTFGGGTKVEIK
notes: captured by anti-hFc, so human Fc
